This data set can be described thus: label from the status in PepcDB records.

This note sets out measurements from a protein production outcome set (Wang et al. 2014).
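Further: failed if final PepcDB status was selected cloned or expressed and not failed if soluble or beyond.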

Consider “MTYHASTPSTPLLVTGGTGTLGGHVVPLLREAGHDVRVLTRRTRPATGNGITYVTGDLRTGEGVEAAVDGVHTVLHLAGGPKGDDEATRTLVRAAARADVRHLAYISVVGADRVPLAWLRTKLESERAIADSGLGWTVLRAAQFHELTLTMIEKMTRLPVLPVPGGLRLQPVAAREVAVRLAELTLAEPSGRVPDMTGPEVLDLATLAHSYLDLRGGRRRPKLPVRIPGKAGRAYRSGQNLTLEDALVGKVTWTEFLAERAAV”, for which the protein production entry is “failed”.

Consider “MTYKDYTGLDRTELLSKVRHMMSDKRFNHVLGVERAAIELAERYGYDKEKAGLAALLHDYAKELSDDEFLRLIDKYQPDPDLKKWGNNIWHGLVGIYKIQEDLAIKDQDILAAIAKHTVGSAQMSTLDKIVYVADYIEHNRDFPGVEEARELAKVDLNKAVAYETARTVAFLASKAQPIYPKTIETYNAYIPYLD”, for which the protein production entry is on record as “not failed”.

Turning to “MTYKVFIDGEAGTTGLQIRARLEGRDDIRLITLGDADRKDTRARLAAFDAADVGILCLPDAAAVEIVAQLAGTGTRLIDASTAHRVDPGWVFGFAELDNDLRARIAGGQFVSNPGCYSTGAIALLHPLVKRGLIAADQALAINAISGYSGGGKAMIAEFESGKTDGPFVYATEQRHKHLPEIVAHAGLTRQPVFVPSVGPYEQGMIVQVPLPFVEPGQGAAIEAALADHYATSRFVSVVSPDHYGARIDPRRLNGTNQLELSVHGNLDTGGAVLLALLDNLGKGASGAAVQNLNIMLGLDEGLGL”, the protein production result was “failed”.

“MTYMNNEVTTKASKQRLEVHKPRPIFFETLTITQIQIFMQSYSRLMQFKVKDLMIDKRRLVEVPDNATLGDALNTMTILGIKPVANRVRAVPVAAKPGQWLGAGGSMIVELDKQSGSARKQYIGMVTMLDVVAHIAGDDGESGLDKKMAAPVSSIIGHCPEGLSLWSLNPNTSIMDCMEMLSKGIHRVLVPLDSNTENITGPELVESASAYAMLSQMDLISFFFDQSSQLHGILSHTVTDLSAIHNTVLALTSQARVKDAIQCMSIAMLNAVPIVEASGEGEDHKQLVDGKNRRVVGTFSASDLKGCHLATLRSWLPLNALEFVEKIPRTLLFTAATSTPGRELVTCHVTSTLAQVIHMVTTKRVHRVWVVDQNGGLQGLVSLTDIIAVVRSALLSGAPDLF”: the protein production entry is on record as “failed”.

As to “MTYNKIMSAAESMEDGIEDMENNLESWGDDMNEYFGDEYEKAETISLDGIKNFFLKAEVGEVKIEISDRADEASYKIQRINPKYFDVEKKGDTISFEDNTPSKFFKNLGFNFKNNSPKIYISLPRNIVFNNFEIKSGVGELDIHDINVEKFNLSAGVGEVNIYDAKISKDAEIKAGVGEVNFKDSTVTNMDIKSGVGSFSFSGTALGKTSVKGGIGEVDLKINGSEKDYDFDVSAGLGEVIINGKKSKTFLADRQKSGSIAQNSITVKGGIGSISIRFKNLEHHHHHH”, the protein production result was “failed”.

As for “MTYQALMFDIDGTLTNSQPAYTTVMREVLATYGKPFSPAQAQKTFPMAAEQAMTELGIAASEFDHFQAQYEDVMASHYDQIELYPGITSLFEQLPSELRLGIVTSQRRNELESGMRSYPFMMRMAVTISADDTPKRKPDPLPLLTALEKVNVAPQNALFIGDSVSDEQTAQAANVDFGLAVWGMDPNADHQKVAHRFQKPLDILELFK”, the protein production result is “not failed”.

For the sequence “MTYRAEVDGLRAIAVTLVILFHSGVEQFAGGFIGVDVFFVISGYLITTIVINDLENQKFSLGDFYERRIRRILPLLLVVIAVSYLMSWWLFLPQAHKDVGQLAVSSILSSSNILLYLKGHNYFGLEDQANPLFHTWSLGVEEQYYIVIPLLLMLLARGKNAFYLTFFIAVFALSLMAIVYTSNDPDFAFYMIFSRAWELATGSLLALVMRKAQVQSNDTLATIGIVLILASALLFEKSQDGAGITLLVPVIGSALVILFASKDNVCGKLLSLKWVVFVGLISYSLYLWHIPLFVFYRYMLDATQDVNISLYIAALFVLSYFTWRFVEKPFRSRKAMSMRTVSAVVVLLTLPLLTFGVIGHQNGGFPERSAFFEAMRINNGYGLDCNGNTDVNDVCSSAPQPTIAVLGNSHSMVYVKRLSEVTPTGVVQLTQDSCAVGYVDILEAAGSISCRQFFKQAVDTILRTPSIRRVVISSNFNKELSQADYEASLTGLLNELEGKEVVVFGPTPSAPFAVGECLWKARLFGEQEESVCDFSPKRHHPQNVAKLVNYFDRFEHVEFVDLTDAICRNGVCRMKVGANNAMYTDDSHLSYKGAELVLGHYHNSTNETQQFTYDRQ”, the protein production entry is reported as “failed”.

With “MTYRDFIGRLKENGKLVEIQQPVSPIFEASRIAKKTKGPVLFHNVSGSKVIMNLLGSRDELSSMLGVPKEEIIKKLSEVSPEGEVRLVPGSPTLEVIESEVDLTKLPILTHFEKDGAPYITAGIVVSEYEGVMNASIHRLMLVGKDKLAARLVPPRHTYLLHKKAAEKGETLPVAIVLGCDPTIIYATSTRVPAGKEFEYAAALRGTPVEVFECSNGIKVPHSEIILEGYIDTKERVDEGPFVDITGTYDMVRKEPVIHITRIIHRKDPIYHGILPAGPEHLLMMGVPYEPRIYRAVGEVTTVKNVVLTEGGCCYLHAVVQIEKQTEGDAKNAIMAAFAAHTSLKHVVVVDEDINIFDPNDVEFAIATRVKGDMDILTITNVRGSSLDPRGASDGTTTKVGIDATKVLIEKENFERAIIPEELEHHHHHH”, the protein production entry was “failed”.

“MVAARPAERSGDPAAVRVPVPSAWWVLIGGVIGLFASMTLTVEKVRILLDPIYVPSCNVNPIVSCGSVMTTPQASLLGFPNPLLGIAGFTVVVVTGVLAVAKVPLPRWYWIGLAVGILVGVAFVHWLIFQSLYRIGALCPYCMVVWAVIATLLVVVASIVFGPMRENRGSQERVGARLLYQWRWSLATLWFTTVFLLIMVRFWDYWSTLI”: the protein production result is reported as “failed”.

Turning to “MVAGFTVHSGPHHVPHRDMTHHSRPPGHAPRVTILMPVYNGEKYLAAAMESILDQTFRDFILLIIDDGSSDSSLAIARSFGDPRVQVERNPKNLGLVKTLNRGLDLVQTEFVARMDCDDIALPDRLEKQIAFLDENPDIGMCGTAYELFHESLRQTIRPPCRHEEIVYGLLDDNVFLHSSVIVRMEVLNRHGLRYREDYRLAEDYELWARLARYTHIGNLPQVLVRYRSHPENVSNTNKGEQIATRDRVRLEHLESFGLAPAADQKTLHIDLFSLAFQGSPDQLADARRWLEALARAVSTRCGLPLGRLHRDFALLWYSACGRSAHHGLTVLFSYLKSAMAWKGPKSYILKLLFRCLMRDPIPAVTKLEHHHHHH”, the protein production entry was “not failed”.

With “MVAVWSAVAALLGVLINNSLSLVIKDYTVQEWRLGIAGYNGAIVGMYWGDSIFSIMGLCLFLVTLLICLLIEFRLRALLIPKQLPILSLPAMVSILVMVFTISLFSFDTNHLLFTGAAEPVLQTYSREVAIILVVSAMAYQYPLATLQTLGISLTGGLVAQWLTGLNLYALVDLWAINLVLAYFSIKTLFLKHARLASLAATFNALLAWIIWYFWFITGLEQLSAPLLIPFIMSSLITLSLYRQYINHNLLQSELWRTFKLMLINRLRAKQCVAITGSGIRKGTLPDYPSGQWLDPKVPITSYTLAEFKASKRCRYLYWKASYDYYQQALTINKNNIDEQLDYLLNHYLSGLFTETVDSLFNTEQHPVYECYGSIKRLYCLDCAKQQAWPPIPLWSQRDLHCQHCSGLLKPQILAADENIDSECYQALQKNMMECGCLLVIGVPTITPVVSMIIENANANKIPIIFIGTIPFGYFVEEKDVQLTGDIAHWLAEINGFINLLHPLKWGCKWKK”, the protein production entry is “failed”.

As to “MVDADGIYYLGPEGSFTHEAASLFKGKDLKAESTISLVFKRVYERESSIGIVPIENSLEGPVNETLDNLYNYDNIYVIGEIEKKIELVLAARSDNLSQIKRIYSHPHAFNEAREKLKELGFNEYIPVESTSKAAKIVSQDSEAAAICSNFAAKLYNLKVLITISSHNNYTRFIVLSKEMNSNGNKSMILFTVPHKPGALYKVLQVFYEYNINISMIYSRPLKSIPWQYYFYLEYEGGISNREFIEKLVKSTSVLKIKGSFSKLNNDPGF”, the protein production entry is reported as “failed”.

As for “MVDDIFERGSKGSSDFFTGNVWVKMLVTDENGVFNTQVYDVVFEPGARTHWHSHPGGQILIVTRGKGFYQERGKPARILKKGDVVEIPPNVVHWHGAAPDEELVHIGISTQVHLGPAEWLGSVTEEEYRKATEGK”, the protein production result is “not failed”.

Regarding “MVDINRRGALGSLLAGAGLAALPASAEAAQMGLLPAKPTSGPTWTTGIEGQRKADLGDGTFLNPILTGDRPDPSILKDGADYYMTHSSFDAYPGLLIWHSRDLVNWTPVTTTLKTNVGSIWAPELCKHKGRYYIYLPAKFPGNNTSYVIWADKIEGPWSEPIDLKLPRYIDPGHIVDEAGERWLFLSGGDRIKLAPDGLSTVGKPEHVYDPWRYPDDWDVEGFSPEGPKLMRRGEYFYMITAVGGTAGPPTGHMVIAARAKSLAGPWENHPRNPLVRTTDNAEKWWSRGHATLVEGPTPGDWWTVYHGYENGYYTLGRQTLLAPVTWTADGWFDIGGGDLSQPIKKPKGGKPGPHGMALSDDFSTDKYGVQWNFFDPKPGEQDRIKREGGVLTLKGAGEAPSTGSPLIFVNGDQAYEIECEIEIEPETRAGLILFYDRQLYCGLGFDAKNFVTHQYGIERGRPANPHGAKMLMRLRNNRHIVSFHTSGDGGKTWKRFDRGMEVSGYHHNVRGGFLMLKPGIYAAGKGSARFRGFKYRALP”, the protein production result was “failed”.

Take “MVDIVCWAVKNGSAGRNLLLIANASSEDDQFWPFLQGLRYRGFKLFATIPDRTLPDDECLTAGIEDTGSDD”: the protein production entry is listed as “failed”.

Consider “MVDNYEYQVGASLPPDAPSYVVRKADSDFYQALKAGKYCYVFNSRQMGKSSLKVRVMQRLVNEGVACSSIDVSGQGSKDNVTQEQWYTGIVSKIVKDLQIAKPIEFRRTWWRDRHDISPVQRFDEFIEDVLLSSIQRHIIIFVDEIDSTLSLGFASEDFFALIRSCYNKRAENPAYKRLTFALLGVATPGDLIQDKTRTPFNIGEAIELDGFKIHDIEPLAKGLAGKVENPQAVMQEVLAWTGGQPFLTQRVCELLGKALSIEKRDFRSVDENQIIELVKEIIHNQIIDNWEANDKQEHLKTIRDRLLISEEISVALLGLYQQILQQVEMTADSSFEQMRLRLTGLVVQQQGKLRVYNQIYRNVFDLSWVENELGKLRFYADKLRAWVESNYQDNTCLLWGEDLEKARVWADGRKLSDVDYRFLSASVEAELNQKVVKAETRQNQALQEEEKAKQRLTEVERKINIGGGILALFVVGAIVAAIGAISANIERQQAQVVTDLERSSADLLRLRGNVGLDNLVEAMRSVKQLKQLVKNGNQLKDYPTVSPILALHNTLEYNREINQLKDDRRVQKQVFSPDTKIVANISDDGTTKLLNLQTGTITTLKHDKKVNNVAFSPNGQIVATASDDGTAKLWNLQGGKIATFKHNKEVNDVAFSPDGKTVGTASWDTAKLWNLQGGEIATLQYDSLVQNIVFSPDGKNVAIASYDSDVKLWNLQGKEIATIIHNKMTKYLSVVNNLFFSPDGKVVATTSRRDATTKLWNLQGKEIATFKYYPDIGIKNSVFSPNGKVVAIYSDDKTVNLYNLQGNTIATLKHNDKVEDIVFSPDGNTVATVSSYVHDGTVNLWNLKGNIIGTFKHQGLFQDISRLEFSPDGQTIATALLDNTAHLWNLQGKKIAIFTHYSQVLNLAFSPDGRTITTASSDGTAKLWNLQGGNIRILKHNDQINNIVFSPDGKTVATTSYDGTAKLWNLQKGEIVTLKHDGVVNDAVFSPDGKTIATTTSSDKTVKLWNLQGQLIATLKHKYEPDKEVVFSPDSNIIATSDDTAKLWNLQGQLIATLTNEGGVREVIFNPDGKSVLTTSYENAKLWNLEGQEIATFKHKHLGEVVFSPDGHTVATASVYRDSDISGSVKLWNLKGEEIITLQHGSFSDVLFSPDGKTIATVSTLSNTAKLWNLQGREIATLTHDGWINHISFSPDGKTIGIRSGDKTVKLWNLRGQEIATLKHNSSTIVSDPIFSPDGKTIATVSLDRTVRLWTEVRDGSWQQFAEYQSRRVVFSPDNKLIAIEGNYFVQLRRVQSLDSLLARGCNDLKEYLASRPDLRKEICPDNK”, for which the protein production entry was “failed”.
